Data taken from patent US20250339569A1 (3B PHARMACEUTICALS, published 2025).
Each block holds one binder with its values, some of them ahead of it. Starred links: 1 amine or outer side, 2 acyl side, 3 side chain; linkers in the order of their positions; H or OH if unused. Positions of bridges follow the written chain, without caps; N, C: chain ends. Non-standard residues stand in square brackets, D forms with d. Primed or numbered codes have the meaning given here. *: point of attachment. Aph(2Ta5Sa) = 4-aminophenylalanine, ring amine acylated with 5-sulfamoylthiophene-2-carboxylic acid, NS(=O)(=O)c1ccc(C(=O)Nc2ccc(C[C@H](N[*:1])C(=O)[*:2])cc2)s1; Aph(3Ta5Sa) = 4-aminophenylalanine, ring amine acylated with 5-sulfamoylthiophene-3-carboxylic acid, NS(=O)(=O)c1cc(C(=O)Nc2ccc(C[C@H](N[*:1])C(=O)[*:2])cc2)cs1; Af3(3MSaBz) = 3-aminophenylalanine, ring amine acylated with 3-(sulfamoylmethyl)benzoic acid, NS(=O)(=O)Cc1cccc(C(=O)Nc2cccc(C[C@H](N[*:1])C(=O)[*:2])c2)c1; Af3(HO-Glutar) = 3-aminophenylalanine acylated on the ring amine with glutaric acid (free COOH), O=C(CCCC(=O)[*:3])Nc1cccc(C[C@H](N[*:1])C(=O)[*:2])c1; Af3(4SaBz) = 3-aminophenylalanine, ring amine acylated with 4-sulfamoylbenzoic acid, NS(=O)(=O)c1ccc(C(=O)Nc2cccc(C[C@H](N[*:1])C(=O)[*:2])c2)cc1; Aph(SaPr)(4) = 4-aminophenylalanine, ring amine acylated with 3-sulfamoylpropanoic acid, NS(=O)(=O)CCC(=O)Nc1ccc(C[C@H](N[*:1])C(=O)[*:2])cc1; Af3(SaPr) = 3-aminophenylalanine, ring amine acylated with 3-sulfamoylpropanoic acid, NS(=O)(=O)CCC(=O)Nc1cccc(C[C@H](N[*:1])C(=O)[*:2])c1; Af3(HO-Succinyl)″ = 3-aminophenylalanine, ring amine acylated with succinic acid, O=C(CCC(=O)[*:3])Nc1cccc(C[C@H](N[*:1])C(=O)[*:2])c1; Af3(H-pGlu) = 3-aminophenylalanine with L-pyroglutamyl on the ring amine, O=C1CC[C@@H](C(=O)Nc2cccc(C[C@H](N[*:1])C(=O)[*:2])c2)N1; Af3(Im5) = 3-aminophenylalanine with 1H-imidazole-5-carbonyl on the ring amine, O=C(Nc1cccc(C[C@H](N[*:1])C(=O)[*:2])c1)c1cnc[nH]1; Af3(Oa5) = 3-aminophenylalanine with 1,3-oxazole-5-carbonyl on the ring amine, O=C(Nc1cccc(C[C@H](N[*:1])C(=O)[*:2])c1)c1cnco1; Af3(H2N-Succinyl) = 3-aminophenylalanine with succinamoyl on the ring amine, NC(=O)CCC(=O)Nc1cccc(C[C@H](N[*:1])C(=O)[*:2])c1; Aph(Cp) = 4-aminophenylalanine with cyclopentanecarbonyl on the ring amine, O=C(Nc1ccc(C[C@H](N[*:1])C(=O)[*:2])cc1)C1CCCC1; DOTA(In) = O=C1CN2CCN3CCN(CC(=O)*)CCN(CC2)CC(=O)[O][In]([O]1)[O]C(=O)C3; Phe(3-NHCO(CH2)3SO2NH2) = N[C@@H](Cc1cccc(NC(=O)CCCS(N)(=O)=O)c1)C(=O)O; APAc″ = 2-(4-(amino)piperidin-1-yl)acetic acid, NC1CCN(CC(=O)*)CC1; DOTA = O=C(O)CN1CCN(CC(=O)O)CCN(CC(=O)*)CCN(CC(=O)O)CC1; NGly(3-aminopropyl) = O=C(CN(CCCN[*:3])[*:1])[*:2]; Phe(4-tBu) = CC(C)(C)c1ccc(C[C@H](N)C(=O)O)cc1; Pyridine(2,6-diCH2) = c1cc(C[*:1])nc(C[*:2])c1; mXylylene = c1cc(C[*:1])cc(C[*:2])c1; Orn(Me2) = CN(C)CCC[C@H](N)C(=O)O; αMeL = CC(C)C[C@](C)(N)C(=O)O; Ac6c = NC1(C(=O)O)CCCCC1; Orn = NCCC[C@H](N)C(=O)O; APAc = not defined here; Dab = NCC[C@H](N)C(=O)O; Dap = NC[C@H](N)C(=O)O

How the values were obtained:
[1] = target: T1, Fc-fusion protein of human carbonic anhydrase IX (human, UniProt Q16790 38-414); test: SPR, captured hCAIX-Fc; pKD category A: >8.0
[2] = target: T1, Fc-fusion protein of human carbonic …; test: SPR, captured hCAIX-Fc; t1/2 category A: >15.0 min
Description: Stock solutions of test compounds were prepared by dissolving each compound in DMSO. DMSO stock solution were diluted 1:1000 in Running Buffer without DMSO. […] SPR binding analyses were performed in Single Cycle Kinetic (SCK) mode at 25° C.
For each test compound, SPR raw data in the form of resonance units (RU) were plotted as sensorgrams using the Biacore™ T200 control software. The signal from the blank sensorgram was subtracted from that of the test compound sensorgram (blank corrected). The blank corrected sensorgram was corrected for baseline drift by subtracting the sensorgram of a SCK run without the test compound (running buffer only). […] Raw data and fit results were imported as text files in IDBS. The pKD value (negative decadic logarithm of dissociation constant) was calculated in the IDBS excel template.

[3] = target: human carbonic anhydrase IX (CAIX) (human, UniProt Q16790 38-459); test: FACS competition, HT-29 cells, tracer 3BP-4149; pIC50 category A: >8.0
Description: (§1) CAIX-expressing human HT-29 colorectal cancer cells (DSMZ, RRID: CVCL_0320) were cultured in McCoys's 5A modified medium (Biochrom, #F1015) including 10% fetal calf serum (FCS), 2 mM L-glutamine, 100 U/ml penicillin and 100 μg/mL streptomycin. Cells were detached with Accutase (Biolegend, #423201) and washed in FACS buffer (PBS including 1% FCS). Cells were diluted in FACS buffer to a final concentration of 500.000 cells per ml. 200 μL of the cell suspension were transferred to a u-shaped non-binding 96-well plate (Greiner) and cells were washed in ice-cold FACS buffer.
(§2) When biotinylated compounds were used an additional incubation step with 1 μg/mL APC-Streptavidin (Miltenyi; #130-106-791) in 50 μL FACS buffer for 30 minutes on ice was performed.
(§3) Cells were washed twice with ice-cold FACS buffer and analyzed in an Attune NxT flow cytometer (Thermo Fisher). Median fluorescence intensities (MFI) of the APC/Cy5-channel were calculated by Attune NxT software.

[4] = target: human carbonic anhydrase 9 (CAIX) (human, UniProt Q16790 38-459); test: FACS competition on HT-29 cells, competitor tracer 3BP-2776; category B = pIC50 7.1-8.0
Description: as §1, §2, §3

B7: 3BP-4173 (peptide)
peptide: {DOTA-APAc″}-VYCE[dP]D[Aph(Cp)]LTWSC-NH2
modifications: linker 3-12 via mXylylene
pIC50 [4]: 7.1 to 8 pic50

B8: 3BP-3958 (peptide)
peptide: Ac-VYCE[dP][Orn]WLEWSC-NH2
modifications: linker 3-12 via mXylylene; lactam 6-9
SMILES: CC(=O)N[C@H](C(=O)N[C@@H](Cc1ccc(O)cc1)C(=O)N[C@H]1CSCc2cccc(c2)CSC[C@@H](C(N)=O)NC(=O)[C@H](CO)NC(=O)[C@H](Cc2c[nH]c3ccccc23)NC(=O)[C@@H]2CCC(=O)NCCC[C@H](NC(=O)[C@H]3CCCN3C(=O)[C@H](CCC(=O)O)NC1=O)C(=O)N[C@@H](Cc1c[nH]c3ccccc13)C(=O)N[C@@H](CC(C)C)C(=O)N2)C(C)C
pIC50 [4]: 7.1 to 8 pic50

B9: 3BP-4098 (peptide)
peptide: {DOTA-APAc}-VYCE[dP][Orn(Me2)]WLTWSC-NH2
modifications: linker 3-12 via mXylylene; reading uncertain
pIC50 [4]: 7.1 to 8 pic50

B12: 3BP-4239 (peptide)
peptide: {DOTA-APAc″}-VYCE[dP]D[Af3(Oa5)]LTWSC-NH2
modifications: linker 3-12 via mXylylene
pIC50 [4]: 7.1 to 8 pic50

B13: 3BP-4053 (peptide)
peptide: {DOTA(In)}-YCE[dP]KWLEWSC-NH2
modifications: linker 2-11 via mXylylene; lactam 5-8; also: indium complexed by DOTA
pIC50 [4]: 7.1 to 8 pic50

B14: 3BP-4140 (peptide)
peptide: {DOTA-APAc″}-VYCE[dP]DWLTWSC-NH2
modifications: linker 3-12 via Pyridine(2,6-diCH2)
pIC50 [4]: 7.1 to 8 pic50

B15: 3BP-4106 (peptide)
peptide: {DOTA-APAc}-VYCE[dP]DW[αMeL]TWSC-NH2
modifications: linker 3-12 via mXylylene; reading uncertain
pIC50 [4]: 7.1 to 8 pic50

B17: 3BP-3960 (peptide)
peptide: Ac-VYCE[dP][Dab]WLEWSC-NH2
modifications: linker 3-12 via mXylylene; lactam 6-9
SMILES: CC(=O)N[C@H](C(=O)N[C@@H](Cc1ccc(O)cc1)C(=O)N[C@H]1CSCc2cccc(c2)CSC[C@@H](C(N)=O)NC(=O)[C@H](CO)NC(=O)[C@H](Cc2c[nH]c3ccccc23)NC(=O)[C@@H]2CCC(=O)NCC[C@H](NC(=O)[C@H]3CCCN3C(=O)[C@H](CCC(=O)O)NC1=O)C(=O)N[C@@H](Cc1c[nH]c3ccccc13)C(=O)N[C@@H](CC(C)C)C(=O)N2)C(C)C
pIC50 [4]: 7.1 to 8 pic50

B18: 3BP-4238 (peptide)
peptide: {DOTA-APAc″}-VYCE[dP]D[Af3(H2N-Succinyl)]LTWSC-NH2
modifications: linker 3-12 via mXylylene
pIC50 [4]: 7.1 to 8 pic50

B19: 3BP-4160 (peptide)
peptide: {DOTA-APAc″}-VYCE[dP]D[Phe(4-tBu)]LTWSC-NH2
modifications: linker 3-12 via mXylylene
pIC50 [4]: 7.1 to 8 pic50

B22: 3BP-4240 (peptide)
peptide: {DOTA-APAc″}-VYCE[dP]D[Af3(Im5)]LTWSC-NH2
modifications: linker 3-12 via mXylylene
pIC50 [4]: 7.1 to 8 pic50

B23: 3BP-3961 (peptide)
peptide: Ac-VYCE[dP]KW[Ac6c]EWSC-NH2
modifications: linker 3-12 via mXylylene; lactam 6-9
SMILES: CC(=O)N[C@H](C(=O)N[C@@H](Cc1ccc(O)cc1)C(=O)N[C@H]1CSCc2cccc(c2)CSC[C@@H](C(N)=O)NC(=O)[C@H](CO)NC(=O)[C@H](Cc2c[nH]c3ccccc23)NC(=O)[C@@H]2CCC(=O)NCCCC[C@H](NC(=O)[C@H]3CCCN3C(=O)[C@H](CCC(=O)O)NC1=O)C(=O)N[C@@H](Cc1c[nH]c3ccccc13)C(=O)NC1(CCCCC1)C(=O)N2)C(C)C
pIC50 [4]: 7.1 to 8 pic50

The next lines start with the values.

pKD [1]: > 8 pkd
t1/2 (half-life of the complex, SPR) [2]: > 15 min
pIC50 [3]: > 8 pic50
B1: 3BP-4377 (peptide)
peptide: {DOTA-APAc}-VDCE[dP]D[Af3(HO-Succinyl)″]LTW[Dap]C-NH2
modifications: lactam 2-11; linker 3-12 via mXylylene; reading uncertain

pKD [1]: > 8 pkd
t1/2 (half-life of the complex, SPR) [2]: > 15 min
pIC50 [3]: > 8 pic50
B2: 3BP-4405 (peptide)
peptide: {DOTA-APAc}-VYCE[dP]D[Af3(4SaBz)]LTWSC-NH2
modifications: linker 3-12 via mXylylene; reading uncertain

pIC50 [4]: 7.1 to 8 pic50
B3: 3BP-4241 (peptide)
peptide: {DOTA-APAc″}-VYCE[dP]D[Af3(H-pGlu)]LTWSC-NH2
modifications: linker 3-12 via mXylylene

pKD [1]: > 8 pkd
t1/2 (half-life of the complex, SPR) [2]: > 15 min
pIC50 [3]: > 8 pic50
B4: 3BP-4369 (peptide)
peptide: {DOTA-APAc}-VYCE[dP]D[Phe(3-NHCO(CH2)3SO2NH2)]LTWSC-NH2
modifications: linker 3-12 via mXylylene; reading uncertain

pKD [1]: > 8 pkd
t1/2 (half-life of the complex, SPR) [2]: > 15 min
pIC50 [3]: > 8 pic50
B5: 3BP-4400 (peptide)
peptide: {DOTA-APAc}-VYCE[dP]D[Aph(SaPr)(4)]LTWSC-NH2
modifications: linker 3-12 via mXylylene; reading uncertain

pKD [1]: > 8 pkd
t1/2 (half-life of the complex, SPR) [2]: > 15 min
pIC50 [3]: > 8 pic50
B6: 3BP-4406 (peptide)
peptide: {DOTA-APAc}-VYCE[dP]D[Af3(3MSaBz)]LTWSC-NH2
modifications: linker 3-12 via mXylylene; reading uncertain

pIC50 [4]: 7.1 to 8 pic50
B10: 3BP-4252 (peptide)
peptide: {DOTA-APAc″}-VYCEG[NGly(3-aminopropyl)]WLEWSC-NH2
modifications: linker 3-12 via mXylylene; lactam 6-9

pKD [1]: > 8 pkd
t1/2 (half-life of the complex, SPR) [2]: > 15 min
pIC50 [3]: > 8 pic50
B11: 3BP-4402 (peptide)
peptide: {DOTA-APAc}-VYCE[dP]D[Aph(2Ta5Sa)]LTWSC-NH2
modifications: linker 3-12 via mXylylene; reading uncertain

pKD [1]: > 8 pkd
t1/2 (half-life of the complex, SPR) [2]: > 15 min
pIC50 [3]: > 8 pic50
B16: 3BP-4367 (peptide)
peptide: {DOTA-APAc″}-VYCE[dP]D[Af3(HO-Glutar)]LTWSC-NH2
modifications: linker 3-12 via mXylylene

pKD [1]: > 8 pkd
t1/2 (half-life of the complex, SPR) [2]: > 15 min
pIC50 [3]: > 8 pic50
B20: 3BP-4407 (peptide)
peptide: {DOTA-APAc}-VYCE[dP]D[Af3(SaPr)]LTWSC-NH2
modifications: linker 3-12 via mXylylene; reading uncertain

pKD [1]: > 8 pkd
t1/2 (half-life of the complex, SPR) [2]: > 15 min
pIC50 [3]: > 8 pic50
B21: 3BP-4401 (peptide)
peptide: {DOTA-APAc}-VYCE[dP]D[Aph(3Ta5Sa)]LTWSC-NH2
modifications: linker 3-12 via mXylylene; reading uncertain
